Measured values from patent US20250154262A1.

Tests used:
[1] = biological target: hFcγRIIIa-V158 (human) (UniProt P08637); experiment: SPR, further study
[2] = biological target: hFcγRIIIa-V158 (human) (UniProt P08637); experiment: SPR (Carterra LSA), protein AG capture
[3] = biological target: hFcγRIIIa-V158 (human) (UniProt P08637); experiment: SPR (Carterra LSA), captured on protein A/G, hFcγRIIIa-V158 injected, 1:1 fit
[4] = biological target: hFcγRIIIa-V158 (human) (UniProt P08637); experiment: SPR (Carterra LSA), captured on protein A/G, hFcγRIIIa-V158 injected, 1:1 fit [Cont. 3]
[5] = biological target: hFcγRIIIa-V158 (human) (UniProt P08637); experiment: SPR (Carterra LSA), captured on protein A/G, hFcγRIIIa-V158 injected, 1:1 fit [Cont. 7]
[6] = biological target: hFcγRIIIa-V158 (human) (UniProt P08637); experiment: SPR (Carterra LSA), captured on protein A/G, hFcγRIIIa-V158 injected, 1:1 fit [Cont. 5]

Sequence of hFcγRIIIa-V158 (human) (P08637 17-208 F176V limits assumed): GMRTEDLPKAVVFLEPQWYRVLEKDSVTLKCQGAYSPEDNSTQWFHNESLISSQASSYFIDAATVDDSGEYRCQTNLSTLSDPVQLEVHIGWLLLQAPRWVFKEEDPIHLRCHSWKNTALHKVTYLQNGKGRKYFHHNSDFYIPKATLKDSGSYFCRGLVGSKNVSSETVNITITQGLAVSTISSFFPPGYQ

Row | Substance | Fold Change vs. WT [1] [fold] | Kd [1] [nM] | koff [1] [s⁻¹] | kon [1] [M⁻¹ s⁻¹] | Kd [2] [nM] | other results
1 | H268D, S267D, A339T (antibody) | 4 | 119 | 0.0525 | 442000 |  | 
2 | H268D, S298A (antibody) |  | 95.7 |  |  |  | 
3 | H268D, Y373W (antibody) |  | 221 |  |  |  | 
4 | H268D, Y373W, S298A (antibody) | 5.8 | 82.6 | 0.0273 | 332000 |  | 
5 | H268D_A330Y_D376V (antibody) |  | 152 |  |  | 87.6 | 
6 | H268D_L251Q_L314M_S298A (antibody) | 7.8 | 60.8 | 0.0279 | 509000 | 24.6 | Fold-change relative to WT [2]: 11.8 fold; koff [2]: 0.0125 s⁻¹; kon [2]: 509000 M⁻¹ s⁻¹
7 | H268D_L251Q_S298A (antibody) |  | 55 |  |  | 31.1 | 
8 | H268D_L314T (antibody) | 3.8 | 125 | 0.0481 | 384000 | 83 | Fold-change relative to WT [2]: 3.5 fold; koff [2]: 0.026 s⁻¹; kon [2]: 314000 M⁻¹ s⁻¹
9 | H268E, L314T, D376V (antibody) |  | 159 |  |  |  | 
10 | WT (from UniProt P01857 1-330) (antibody) |  | 477 |  |  | 289 | Kd [3]: 350 nM; Kd [4]: 290 nM; Kd [5]: 350 nM
11 | adalimumab (antibody) |  |  |  |  |  | Kd [5]: 190 nM; Kd [6]: 310 nM
